T1: ARPC1 (subunit of fission yeast Arp2/3 complex) (S. pombe, UniProt P78774)
T1 sequence: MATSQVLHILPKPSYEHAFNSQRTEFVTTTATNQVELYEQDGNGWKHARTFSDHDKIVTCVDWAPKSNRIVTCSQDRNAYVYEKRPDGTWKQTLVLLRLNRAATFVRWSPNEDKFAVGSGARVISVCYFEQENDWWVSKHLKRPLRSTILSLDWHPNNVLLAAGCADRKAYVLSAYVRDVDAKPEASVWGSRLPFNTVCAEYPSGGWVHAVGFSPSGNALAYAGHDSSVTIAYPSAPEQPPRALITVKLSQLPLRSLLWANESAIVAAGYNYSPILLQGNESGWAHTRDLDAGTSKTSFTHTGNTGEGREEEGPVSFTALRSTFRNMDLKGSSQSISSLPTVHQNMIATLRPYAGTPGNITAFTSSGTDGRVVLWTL

B1: ARPC2 (subunit of fission yeast Arp2/3 complex) (natural protein)
chain: MLSLDYNNIFIYELLTERFSSENPSSIDQVVTDFDGVTFHISTPEEKTKILISLSMKCYPELVNYGTLDLLKQIYGAYVHEPEMGYNFSILIDLQQLPATDEEKEQLAMSISMLKRNVLAAPFHRAFTKQAELADLARKDPENAPMLDKQATSQELMAIHYRDEETIVLWPEHDRVTVVFSTKFREETDRIFGKVFLQEFVDARRRPAIQTAPQVLFSYRDPPLEIRDIQGIQKGDDFGFVTFVLFERHFTPQNREDCISHIQVFRNTLHFHIKASKAYMHQRMRKRVADFQKVLNRAKPDVELERKTATGRSFVRA
B2: ARPC3 (subunit of fission yeast Arp2/3 complex) (natural protein)
chain: MPAYHSSFLSLTDVPTTGNIAMLPLKTKFRGPAYPADESQMDIIDECIGLFRANCFFRNFEIKGPADRTLIYGTLFISECLGRVNGLNYRDAERQLNSLALENFSIPGSAGFPLNALYAPPLSPQDAEIMRTYLTQFRQELAYRLLSHVYATEKDHPSKWWTCFSKRRFMNKAL
B3: ARPC4 (subunit of fission yeast Arp2/3 complex) (natural protein)
chain: not shown

Legend:
Assay in all cases: cryo-EM structure
[1] = molecular target: Arp2 (subunit of fission yeast Arp2/3 complex) (S. pombe, UniProt Q9UUJ1)
Arp2 (subunit of fission yeast Arp2/3 complex), sequence (Q9UUJ1 whole entry, one chain of several): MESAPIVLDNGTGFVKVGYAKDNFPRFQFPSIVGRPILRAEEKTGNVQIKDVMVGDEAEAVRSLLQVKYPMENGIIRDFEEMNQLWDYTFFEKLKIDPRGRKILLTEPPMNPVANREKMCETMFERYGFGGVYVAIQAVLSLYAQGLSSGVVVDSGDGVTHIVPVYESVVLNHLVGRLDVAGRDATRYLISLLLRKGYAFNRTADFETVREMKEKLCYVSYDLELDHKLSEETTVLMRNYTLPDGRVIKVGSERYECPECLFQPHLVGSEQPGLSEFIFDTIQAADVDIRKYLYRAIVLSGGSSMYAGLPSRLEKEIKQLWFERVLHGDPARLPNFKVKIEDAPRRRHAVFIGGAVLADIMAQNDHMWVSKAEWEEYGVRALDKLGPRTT

[2] = molecular target: T1, ARPC1 (subunit of fission yeast Arp2/3 …)
[3] = molecular target: B1

| binding result [1] | binding result [2] | binding result [3] | Binder |
| --- | --- | --- | --- |
| binds | binds | – | B1 |
| binds | – | – | B2 |
| – | binds | binds | B3 |
